The text below walks through data of patent US20110046056A1, “APOA-1 PEPTIDE MIMETICS” (priority 2007, published 2011).

*1 amine or outer side, *2 acyl side, *3 side chain or, on linkers, in order; H or OH if unused. Bridges are numbered along the chain shown (N, C = ends). Where no end group is shown, it is not given here. [ ]: non-standard residue; d: D form. dStyrA = (R)-styryl-alanine, (D)-StyrA, O=C([C@@H](C/C=C/c1ccccc1)N[*:1])[*:2]; S6H = (2S)-2-aminooct-7-enoic acid, C=CCCCC[C@H](N[*:1])C(=O)[*:2]; S7H3 = (2S)-2-aminononanoic acid, CCCCCCC[C@H](N[*:1])C(=O)[*:2]; Leu(5,5,5,5',5',5'-F6) = N[C@@H](CC(C(F)(F)F)C(F)(F)F)C(=O)O; dNle(6-ylidene) = O=C([C@@H](CCCC=[*:3])N[*:1])[*:2]; Ala(E-styryl) = N[C@@H](C/C=C/c1ccccc1)C(=O)O; Gly(oct-7-en-1-yl) = C=CCCCCCC[C@H](N)C(=O)O; dGly(6-heptenyl) = C=CCCCCC[C@@H](N)C(=O)O; Ala(5-hexenyl) = C=CCCCCC[C@H](N)C(=O)O; Gla = N[C@@H](CC(C(=O)O)C(=O)O)C(=O)O; S8H3 = not defined here; R5H = not defined here; Aib = CC(C)(N)C(=O)O Some results are limits rather than exact numbers.

This experiment addresses ATP-binding cassette transporter A1 (ABCA1) (mouse, UniProt P41233 1-2261). Kind of experiment: cell-based or functional assay.

Chain of ATP-binding cassette transporter A1 (ABCA1) (P41233 whole entry): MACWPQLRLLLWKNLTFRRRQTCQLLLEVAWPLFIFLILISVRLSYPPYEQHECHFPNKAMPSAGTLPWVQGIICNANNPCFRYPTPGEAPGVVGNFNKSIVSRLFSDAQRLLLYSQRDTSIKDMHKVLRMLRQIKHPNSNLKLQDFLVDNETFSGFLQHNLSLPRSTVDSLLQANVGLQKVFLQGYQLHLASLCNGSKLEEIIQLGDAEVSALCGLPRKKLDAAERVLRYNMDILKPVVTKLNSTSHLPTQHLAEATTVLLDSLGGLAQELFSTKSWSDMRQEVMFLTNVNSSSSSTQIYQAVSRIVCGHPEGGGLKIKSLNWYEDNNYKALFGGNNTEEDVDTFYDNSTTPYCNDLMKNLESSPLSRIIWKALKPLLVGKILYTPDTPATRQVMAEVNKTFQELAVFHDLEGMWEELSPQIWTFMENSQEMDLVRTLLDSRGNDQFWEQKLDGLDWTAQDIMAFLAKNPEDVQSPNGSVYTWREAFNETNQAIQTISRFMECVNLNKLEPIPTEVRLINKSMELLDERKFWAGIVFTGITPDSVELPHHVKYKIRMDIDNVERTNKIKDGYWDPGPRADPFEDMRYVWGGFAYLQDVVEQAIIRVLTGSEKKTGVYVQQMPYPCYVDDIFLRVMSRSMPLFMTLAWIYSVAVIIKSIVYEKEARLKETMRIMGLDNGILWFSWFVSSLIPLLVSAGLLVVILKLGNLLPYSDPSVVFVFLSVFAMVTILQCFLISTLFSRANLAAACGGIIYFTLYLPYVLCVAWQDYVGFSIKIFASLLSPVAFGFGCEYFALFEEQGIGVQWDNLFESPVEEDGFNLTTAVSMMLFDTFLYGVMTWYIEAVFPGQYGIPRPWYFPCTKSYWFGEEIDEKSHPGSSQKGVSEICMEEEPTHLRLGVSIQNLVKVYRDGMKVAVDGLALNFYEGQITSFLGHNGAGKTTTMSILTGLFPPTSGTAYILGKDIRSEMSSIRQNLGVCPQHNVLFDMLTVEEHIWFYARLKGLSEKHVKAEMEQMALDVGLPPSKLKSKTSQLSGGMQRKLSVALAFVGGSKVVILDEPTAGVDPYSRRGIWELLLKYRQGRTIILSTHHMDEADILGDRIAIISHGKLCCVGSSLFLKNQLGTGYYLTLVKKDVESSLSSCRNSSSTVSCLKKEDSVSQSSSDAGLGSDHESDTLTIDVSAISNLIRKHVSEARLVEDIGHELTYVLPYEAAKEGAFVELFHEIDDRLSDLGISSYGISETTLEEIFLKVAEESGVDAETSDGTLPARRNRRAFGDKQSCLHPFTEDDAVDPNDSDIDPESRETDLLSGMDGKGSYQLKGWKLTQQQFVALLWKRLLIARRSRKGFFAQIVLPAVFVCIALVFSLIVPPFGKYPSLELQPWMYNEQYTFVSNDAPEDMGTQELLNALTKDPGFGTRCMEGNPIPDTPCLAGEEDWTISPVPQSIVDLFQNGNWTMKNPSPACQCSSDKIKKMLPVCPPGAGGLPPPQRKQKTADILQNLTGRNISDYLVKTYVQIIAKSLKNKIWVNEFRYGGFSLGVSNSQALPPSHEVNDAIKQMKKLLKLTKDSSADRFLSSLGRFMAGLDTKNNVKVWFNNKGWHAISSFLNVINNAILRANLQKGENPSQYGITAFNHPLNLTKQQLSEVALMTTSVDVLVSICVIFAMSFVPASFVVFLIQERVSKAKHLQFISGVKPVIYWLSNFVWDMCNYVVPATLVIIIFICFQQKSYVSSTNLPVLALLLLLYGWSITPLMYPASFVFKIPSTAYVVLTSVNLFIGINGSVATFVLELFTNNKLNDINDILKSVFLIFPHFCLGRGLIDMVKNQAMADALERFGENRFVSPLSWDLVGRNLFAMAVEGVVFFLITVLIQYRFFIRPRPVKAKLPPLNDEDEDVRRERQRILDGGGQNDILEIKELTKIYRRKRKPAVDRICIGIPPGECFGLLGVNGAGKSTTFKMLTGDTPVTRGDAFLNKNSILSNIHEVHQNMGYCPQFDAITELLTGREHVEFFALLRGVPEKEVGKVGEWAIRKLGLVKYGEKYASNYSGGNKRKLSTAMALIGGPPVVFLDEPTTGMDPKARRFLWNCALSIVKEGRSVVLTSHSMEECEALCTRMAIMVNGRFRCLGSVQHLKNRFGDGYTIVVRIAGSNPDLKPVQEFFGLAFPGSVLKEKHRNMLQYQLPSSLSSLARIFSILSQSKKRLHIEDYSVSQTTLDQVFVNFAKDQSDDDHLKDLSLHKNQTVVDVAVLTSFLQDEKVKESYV

As for Ac-PVLDEFREKLNE[Leu(5,5,5,5',5',5'-F6)]LEALKQKLK (not fully specified (C-terminus)) [CONS[HF-LEU^,13]], the “ABCA1-dependent cholesterol efflux EC50” value amounted to 1100 nM.

Ac-PVLDEFREKLNE[S6H]LEALKQKLK (not fully specified (C-terminus)) [CONS[S6H^13]]: the “ABCA1-dependent cholesterol efflux EC50” value stood at 1400 nM.

Consider Ac-PVLDEFREKLNEELEALKQ[S6H]LK (not fully specified (C-terminus); printed as PVLDEFREKLNEELEALKQS6HLK) [CONS[S6H^20]], for which the “ABCA1-dependent cholesterol efflux EC50” value was 236000 nM.

In the case of Ac-PVLDEFREKLNE[R5H]LEA[R5H]KQKLK (staple 13-17; reading uncertain) [R5H [E13-L17]R5H CLOSED RING], the “ABCA1-dependent cholesterol efflux, % at 30 uM” value is below 2%.

With Ac-PVLDE[dGly(6-heptenyl)]REKLNE[Ala(5-hexenyl)]LEALKQ[Ala(5-hexenyl)]LK (not fully specified (C-terminus); printed as PVLDER7HREKLNES7HLEALKQS7HLK) [CONS[R7H^6, S7H^13,20]], the “ABCA1-dependent cholesterol efflux EC50” value is 100 nM.

As for Ac-P[S6H]LDEFREKLNEELEALKQKLK (not fully specified (C-terminus)) [CONS[S6H^2]], the “ABCA1-dependent cholesterol efflux, % at 100 uM” value was 1%.

On to Ac-PVLDEFRE[R5H]LNE[R5H]LEALKQKLK (staple 9-13; reading uncertain) [R5H [K9-E13]R5H CLOSED RING], for which the “ABCA1-dependent cholesterol efflux EC50” value was determined as 10000 nM.

As for Ac-P[dGly(6-heptenyl)]LDEFREKLNEELEALKQKLK (not fully specified (C-terminus)) [CONS[R7H^2]], the “ABCA1-dependent cholesterol efflux, % at 100 uM” value stood at 6.3%.

As to Ac-P[Ala(5-hexenyl)]LDE[Ala(5-hexenyl)]REKLNE[Ala(5-hexenyl)]LEALKQKLK [CONS[S7H^2,6,13]], the “ABCA1-dependent cholesterol efflux EC50” value stood at 100 nM.

As to Ac-PVLDEFREKLNEELEALKQ[dGly(6-heptenyl)]LK (not fully specified (C-terminus); printed as PVLDEFREKLNEELEALKQR7HLK) [CONS[R7H^20]], the “ABCA1-dependent cholesterol efflux, % at 100 uM” value stood at 1.4%.

Consider Ac-PVLDEFREKLNE[dGly(6-heptenyl)]LEALKQKLK (not fully specified (C-terminus)) [CONS[R7H^13]], for which the “ABCA1-dependent cholesterol efflux EC50” value worked out at 7200 nM.

Regarding Ac-PVLDEFREKLNE[S7H3]LEALKQKLK (not fully specified (C-terminus); printed as PVLDEFREKLNES7H3LEALKQKLK) [CONS[S7H3^13]], the “ABCA1-dependent cholesterol efflux EC50” value was 600 nM.

B1: CONS[E^4, Q^11, S8H3^13,] (peptide)
peptide: Ac-PVLEEFREKLQE[S8H3]LEALKQKLK
modifications: not fully specified (C-terminus); printed as PVLEEFREKLQES8H3LEALKQKLK; reading uncertain; also: calls X13 alkenyl side chain-substituted amino acid
Turning to B1, the “ABCA1-dependent cholesterol efflux EC50” value was 200 nM.

On to Ac-P[Ala(5-hexenyl)]LDEFREKLNE[Ala(5-hexenyl)]LEALKQKLK [CONS[S7H^2,13]], for which the “ABCA1-dependent cholesterol efflux EC50” value was found to be 300 nM.

Turning to Ac-PVLDE[S7H3]REKLNE[S7H3]LEALKQKLK (not fully specified (C-terminus); printed as PVLDES7H3REKLNES7H3LEALKQKLK) [CONS[S7H3^6,13]], the “ABCA1-dependent cholesterol efflux EC50” value amounted to 300 nM.

With Ac-PVLDEFREKLNE[Aib]L[Gla]ALKQKLK (not fully specified (C-terminus)) [GLA15/AIB13], the “ABCA1-dependent cholesterol efflux EC50” value worked out at 41000 nM.

In the case of Ac-PVLDEFREKLNE[dNle(6-ylidene)]LEALKQKLK (not fully specified (C-terminus)) [CONS[R5H^13]], the “ABCA1-dependent cholesterol efflux, % at 100 uM” value was 6.2%.

With Ac-PVLDEFREKLNEAL[Gla]ALKQKLK (not fully specified (C-terminus)) [GLA15/ALA13], the “ABCA1-dependent cholesterol efflux EC50” value was 234000 nM.

With Ac-PVLDEFR[Gla]KLNE[Aib]LEALKQKLK (not fully specified (C-terminus)) [GLA8/AIB13], the “ABCA1-dependent cholesterol efflux EC50” value is 44000 nM.

Regarding Ac-PVLDE[Ala(E-styryl)]REKLNE[Ala(5-hexenyl)]LEALKQKLK [CON[(S)STYRA^6, S7H^13]], the “ABCA1-dependent cholesterol efflux EC50” value is 200 nM.

On to Ac-PVLDEFREK[Ala(5-hexenyl)]NEELEALKQKLK [CONS[S7H^10]], for which the “ABCA1-dependent cholesterol efflux, % at 100 uM” value is 1.4%.

With Ac-PVLEE[Ala(5-hexenyl)]REKLQE[Ala(5-hexenyl)]LEALKQKLK (not fully specified (C-terminus)) [CONS[E^4, S7H^6,13, Q^11]], the “ABCA1-dependent cholesterol efflux EC50” value was 700 nM.

As to Ac-P[Ala(5-hexenyl)]LDEFREKLNE[Ala(5-hexenyl)]LEALKQ[Ala(5-hexenyl)]LK [CONS[S7H^2,13,20]], the “ABCA1-dependent cholesterol efflux EC50” value came out at 3200 nM.

On to Ac-PVLDE[Ala(5-hexenyl)]REKLNE[Ala(5-hexenyl)]LEALKQKLK [CONS[S7H^6,13]], for which the “ABCA1-dependent cholesterol efflux EC50” value was determined as 300 nM.

Turning to Ac-PVLDEFR[Gla]KLNE[Ala(5-hexenyl)]LEALKQKLK (not fully specified (C-terminus)) [CONS[GLA^8, S7H^13]], the “ABCA1-dependent cholesterol efflux EC50” value was 900 nM.

On to Ac-PVLDEFR[Gla]KLNEALEALKQKLK (not fully specified (C-terminus)) [GLA8/ALA13], for which the “ABCA1-dependent cholesterol efflux EC50” value worked out at 142000 nM.

For Ac-PVLDEFREKLNE[Gly(oct-7-en-1-yl)]LEALKQKLK [CONS[S8H^13]], the “ABCA1-dependent cholesterol efflux EC50” value amounted to 600 nM.

Take Ac-PVLDE[Gly(oct-7-en-1-yl)]REKLNE[Gly(oct-7-en-1-yl)]LEALKQKLK [CONS[S8H^6,13]]: the “ABCA1-dependent cholesterol efflux EC50” value came to 400 nM.

Take Ac-PVLEEFREKLQE[Gly(oct-7-en-1-yl)]LEALKQKLK (not fully specified (C-terminus)) [CONS[E^4, Q^11, S8H^13]]: the “ABCA1-dependent cholesterol efflux EC50” value came out at 300 nM.

Ac-PVLDEFKEKLNE[Ala(5-hexenyl)]LEALKQKLK (not fully specified (C-terminus)) [CONS[K^7, S7H^13]]: the “ABCA1-dependent cholesterol efflux EC50” value is 1300 nM.

Take Ac-PVLDEFRE[Ala(5-hexenyl)]LNEELEALKQKLK [CONS[S7H^9]]: the “ABCA1-dependent cholesterol efflux, % at 100 uM” value is 1.4%.

Turning to Ac-PVLDEFREKLNEELEA[Ala(5-hexenyl)]KQKLK [CONS[S7H^17]], the “ABCA1-dependent cholesterol efflux, % at 100 uM” value amounted to 1%.

With Ac-PVLDEFREKLNE[dStyrA]LEALKQKLK (not fully specified (C-terminus)) [CONS[(R)STYRA^13]], the “ABCA1-dependent cholesterol efflux EC50” value came to 22000 nM.

As to Ac-PVLDEFREKLNE[Ala(E-styryl)]LEALKQKLK (not fully specified (C-terminus)) [CONS[(S)STYRA^13]], the “ABCA1-dependent cholesterol efflux EC50” value came out at 1000 nM.

With Ac-PVLDEFREKLNE[Ala(5-hexenyl)]L[Gla]ALKQKLK [CONS[S7H^13, GLA^15]], the “ABCA1-dependent cholesterol efflux EC50” value was 700 nM.

As for Ac-PVLDE[S8H3]REKLNE[S8H3]LEALKQKLK (reading uncertain) [CONS[S8H3^6,13]], the “ABCA1-dependent cholesterol efflux EC50” value was found to be 600 nM.

On to Ac-PVLDEFREKLNE[S8H3]LEALKQKLK (reading uncertain) [CONS[S8H3^13]], for which the “ABCA1-dependent cholesterol efflux EC50” value is 300 nM.

On to Ac-PVLDEFREKLNE[Ala(5-hexenyl)]LEALKQ[Ala(5-hexenyl)]LK [CONS[S7H^13,20]], for which the “ABCA1-dependent cholesterol efflux EC50” value is 600 nM.

As for Ac-PVLDE[Ala(5-hexenyl)]REKLNEELEALKQKLK [CONS[S7H^6]], the “ABCA1-dependent cholesterol efflux, % at 100 uM” value was 4%.

Take PXLDEFREKLNEXLXALKQXLK (not fully specified; N-terminal acetyl (Ac-Pro); S7H at 2, 13 and 20; Gla at 15) [CONS[GLA^15, S7H^2,13,20]]: the “ABCA1-dependent cholesterol efflux EC50” value worked out at 7700 nM.

For the molecule Ac-PVLDE[Ala(5-hexenyl)]REKLNE[Ala(5-hexenyl)]LEALKQ[Ala(5-hexenyl)]LK [CONS[S7H^6,13,20]], the “ABCA1-dependent cholesterol efflux EC50” value is 200 nM.
